Laboratory results: PMC4027189

Assays:
[1] = target: H2A–H2B (H2A T118C labeled with Alexa-488 refolded with H2B) (UniProt P04911); experiment: FRET or BRET
[2] = target: H3–H4 (H3 refolded with labeled H4 E63C) (UniProt P61830); experiment: FRET or BRET

Chain of UniProt P04911 (P04911 2-132, chain 1 of 2): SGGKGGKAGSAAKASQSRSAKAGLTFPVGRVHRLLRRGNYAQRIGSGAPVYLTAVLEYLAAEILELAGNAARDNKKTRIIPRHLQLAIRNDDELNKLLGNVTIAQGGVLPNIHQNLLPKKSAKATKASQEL
Chain of UniProt P04911 (P02294 2-131 T119C, chain 2 of 2, further chain): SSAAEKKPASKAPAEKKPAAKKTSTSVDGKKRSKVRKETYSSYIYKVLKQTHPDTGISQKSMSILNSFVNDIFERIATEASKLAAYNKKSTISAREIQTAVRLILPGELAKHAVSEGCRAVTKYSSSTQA

- Kd [1]: 305 nM
- Kd [2]: 196 nM
Substance: Scm3, full length, labeled with Atto-647N at cysteine 41 (from UniProt Q12334 1-223) (natural protein)
